Measurements from patent publication US20250145711A1 (Janssen / Centocor, published 2025).

B1: CD3B2031 (scFv)
scFv: QVQLVQSGAEVKKPGSSVKVSCKASGYTFTRSTMHWVKQAPGQGLEWMGYINPSSAYTNYNQKFQGRVTLTADKSTSTAYMELSSLRSEDTAVYYCASPQVHYDYNGFPYWGQGTLVTVSSGGSEGKSSGSGSESKSTGGSEIVLTQSPATLSASPGERVTLSCSASSSVSYMNWYQQKPGTAPRRWIYDSSKLASGVPARFSGSGSGRDYTLTISSLEPEDFAVYYCQQWSRNPPTFGGGTKVEIK
B2: CD3B2033 (scFv)
scFv: QVQLVQSGAEVKKPGSSVKVSCKASGYTFTRSTMHWVKQAPGQGLEWMGYINPSSAYTNYNQKFQGRVTLTADKSTSTAYMELSSLRSEDTAVYYCASPQVHYDYNGFPYWGQGTLVTVSSGGSEGKSSGSGSESKSTGGSEIVLTQSPATLSASPGERVTLSCSASSSVSYMNWYQQKPGTAPRRLIYDSSKLASGVPARFSGSGSGRDYTLTISSLEPEDFAVYYCQQWSRNPPTFGGGTKVEIK
B3: CD3B2034 (scFv)
scFv: QVQLVQSGAEVKKPGSSVKVSCKASGYTFTRSTMHWVKQAPGQGLEWMGYINPSSAYTNYNQKFQGRVTLTADKSTSTAYMELSSLRSEDTAVYYCASPQVHYDYNGFPYWGQGTLVTVSSGGSEGKSSGSGSESKSTGGSEIVLTQSPATLSASPGERVTLSCSASSSVSYMNWYQQKPGQSPRRWIYDSSKLASGVPARFSGSGSGRDYTLTISSLEPEDFAVYYCQQWSRNPPTFGGGTKVEIK
B4: CD3B2037 (scFv)
scFv: QVQLVQSGAEVKKPGSSVKVSCKASGYTFTRSTMHWVKQAPGQGLEWMGYINPSSAYTNYAQKFQGRVTLTADKSTSTAYMELSSLRSEDTAVYYCASPQVHYDYNGFPYWGQGTLVTVSSGGSEGKSSGSGSESKSTGGSEIVLTQSPATLSASPGERVTLSCSASSSVSYMNWYQQKPGTSPRRLIYDSSKLASGVPARFSGSGSGRDYTLTISSLEPEDFAVYYCQQWSRNPPTFGGGTKVEIK
B5: CD3B2038 (scFv)
scFv: QVQLVQSGAEVKKPGSSVKVSCKASGYTFTRSTMHWVKQAPGQGLEWMGYINPSSAYTNYAQKFQGRVTLTADKSTSTAYMELSSLRSEDTAVYYCASPQVHYDYNGFPYWGQGTLVTVSSGGSEGKSSGSGSESKSTGGSEIVLTQSPATLSASPGERVTLSCSASSSVSYMNWYQQKPGTAPRRLIYDSSKLASGVPARFSGSGSGRDYTLTISSLEPEDFAVYYCQQWSRNPPTFGGGTKVEIK
B6: CD3B2039 (scFv)
scFv: QVQLVQSGAEVKKPGSSVKVSCKASGYTFTRSTMHWVKQAPGQGLEWMGYINPSSAYTNYAQKFQGRVTLTADKSTSTAYMELSSLRSEDTAVYYCASPQVHYDYNGFPYWGQGTLVTVSSGGSEGKSSGSGSESKSTGGSEIVLTQSPATLSASPGERVTLSCSASSSVSYMNWYQQKPGQSPRRWIYDSSKLASGVPARFSGSGSGRDYTLTISSLEPEDFAVYYCQQWSRNPPTFGGGTKVEIK
B7: CD3B2041 (scFv)
scFv: QVQLVQSGAEVKKPGSSVKVSCKASGYTFTRSTMHWVRQAPGQGLEWIGYINPSSAYTNYNQKFQGRVTLTADKSTSTAYMELSSLRSEDTAVYYCASPQVHYDYNGFPYWGQGTLVTVSSGGSEGKSSGSGSESKSTGGSEIVLTQSPATLSASPGERVTLSCSASSSVSYMNWYQQKPGTAPRRWIYDSSKLASGVPARFSGSGSGRDYTLTISSLEPEDFAVYYCQQWSRNPPTFGGGTKVEIK
B8: CD3B2042 (scFv)
scFv: QVQLVQSGAEVKKPGSSVKVSCKASGYTFTRSTMHWVRQAPGQGLEWIGYINPSSAYTNYNQKFQGRVTLTADKSTSTAYMELSSLRSEDTAVYYCASPQVHYDYNGFPYWGQGTLVTVSSGGSEGKSSGSGSESKSTGGSEIVLTQSPATLSASPGERVTLSCSASSSVSYMNWYQQKPGTSPRRLIYDSSKLASGVPARFSGSGSGRDYTLTISSLEPEDFAVYYCQQWSRNPPTFGGGTKVEIK
B9: CD3B2043 (scFv)
scFv: QVQLVQSGAEVKKPGSSVKVSCKASGYTFTRSTMHWVRQAPGQGLEWIGYINPSSAYTNYNQKFQGRVTLTADKSTSTAYMELSSLRSEDTAVYYCASPQVHYDYNGFPYWGQGTLVTVSSGGSEGKSSGSGSESKSTGGSEIVLTQSPATLSASPGERVTLSCSASSSVSYMNWYQQKPGTAPRRLIYDSSKLASGVPARFSGSGSGRDYTLTISSLEPEDFAVYYCQQWSRNPPTFGGGTKVEIK
B10: CD3B2044 (scFv)
scFv: QVQLVQSGAEVKKPGSSVKVSCKASGYTFTRSTMHWVRQAPGQGLEWIGYINPSSAYTNYNQKFQGRVTLTADKSTSTAYMELSSLRSEDTAVYYCASPQVHYDYNGFPYWGQGTLVTVSSGGSEGKSSGSGSESKSTGGSEIVLTQSPATLSASPGERVTLSCSASSSVSYMNWYQQKPGQSPRRWIYDSSKLASGVPARFSGSGSGRDYTLTISSLEPEDFAVYYCQQWSRNPPTFGGGTKVEIK
B11: CD3B2045 (scFv)
scFv: QVQLVQSGAEVKKPGSSVKVSCKASGYTFTRSTMHWVRQAPGQGLEWIGYINPSSAYTNYNQKFQGRVTLTADKSTSTAYMELSSLRSEDTAVYYCASPQVHYDYNGFPYWGQGTLVTVSSGGSEGKSSGSGSESKSTGGSEIVLTQSPATLSASPGERVTLSCSASSSVSYMNWYQQKPGQAPRRWIYDSSKLASGVPARFSGSGSGRDYTLTISSLEPEDFAVYYCQQWSRNPPTFGGGTKVEIK
B12: CD3B2058 (scFv)
scFv: QVQLVQSGAEVKKPGSSVKVSCKASGYTFTRSTMHWVKQAPGQGLEWIGYINPSSAYTNYAQKFQGRVTLTADKSTSTAYMELSSLRSEDTAVYYCASPQVHYDYNGFPYWGQGTLVTVSSGGSEGKSSGSGSESKSTGGSEIVLTQSPATLSASPGERVTLSCSASSSVSYMNWYQQKPGTSPRRWIYDSSKLASGVPARFSGSGSGRDYTLTISSLEPEDFAVYYCQQWSRNPPTFGGGTKVEIK

What was measured:
[1] = target: T1, TRCW5 antigen (CD3δε-Fc-Avi) (biotinylated (site not stated)); experiment: ELISA after heat
T1 construct: also called recombinant CD3

[2] = target: T2, CD3 on primary human pan T cells (human, UniProt P07766 23-207); experiment: flow cytometry, pan T-cells
T2 construct: on cells it stands in the TCR/CD3 complex; also called Pan T-cells (CD3-positive); endogenous CD3
Method: ELISA assays for binding to recombinant CD3 (TRCW5, SEQ ID NO: 39) were performed as above. Cell binding was performed using primary human T cell and Jurkat cells by flow cytometry. Briefly, E. coli expressed anti CD3 ScFv supernatants, either at room temperature, or 55° C., 60° C. or 65° C. heat treated samples.
Pan T-cells (CD3-positive) and Jurkat-CD3-negative cells were prepared by staining Jurkat-CD3-negative cells with CFSE while keeping pan T-cells unstained. Jurkat-CD3-negative cell suspensions were resuspended at 20 million cells per each 50 mL conical tube. Cells were harvested by centrifugation at 400×g for 5 minutes and resuspended in DPBS followed by washing 2× in DPBS. Cells were stained with 1:25,000 dilution for a final dye concentration of 0.02 uM CFSE (2 uL of staining solution to 50 mL of cell suspension). Cells were incubated for 10 minutes at room temperature and centrifuged for 5 minutes at 400×g. After removal of supernatant, 3 mL of HI-FBS were added to the cell pellet, mixed and centrifuged for 5 min at 400×g. Supernatant was removed and cells were resuspended in BD stain buffer at 2×10\hat{ }6 cells/mL and incubated on ice or 4 C protected from light. Human pan T cells were thawed at 37 C and transferred gently into a conical tube containing 15 mL of warm or RT culture media (RPMI+10% FBS). […] Cells were harvested by centrifugation at 400×g for 5 min and resuspended in culture media (RPMI+10% HI-FBS). Pan T-cells (without staining) were prepared at 2×10\hat{ }6 cells/mL in flow staining buffer. Equal volumes of CFSE stained Jurkat-CD3-negative cells and unstained T-cells (CD3-positive) cells were mixed and plated 50 uL/well into assay plates. 50 uL/well neat bacterial supernatant samples and control sample (CD3W36 ScFv) were added to each well and plates were incubated 1 hr at 4 C or. Cells were harvested by centrifugation at 400×g for 4 min and 150 uL staining buffer were added to all wells, followed by centrifugation at 400×g for 4 min to pellet cells. To each well, 150 uL staining buffer were added followed by centrifugation at 400×g for 4 minutes to pellet cells.

T1 sequence (chain, as listed by the source mutant limits assumed): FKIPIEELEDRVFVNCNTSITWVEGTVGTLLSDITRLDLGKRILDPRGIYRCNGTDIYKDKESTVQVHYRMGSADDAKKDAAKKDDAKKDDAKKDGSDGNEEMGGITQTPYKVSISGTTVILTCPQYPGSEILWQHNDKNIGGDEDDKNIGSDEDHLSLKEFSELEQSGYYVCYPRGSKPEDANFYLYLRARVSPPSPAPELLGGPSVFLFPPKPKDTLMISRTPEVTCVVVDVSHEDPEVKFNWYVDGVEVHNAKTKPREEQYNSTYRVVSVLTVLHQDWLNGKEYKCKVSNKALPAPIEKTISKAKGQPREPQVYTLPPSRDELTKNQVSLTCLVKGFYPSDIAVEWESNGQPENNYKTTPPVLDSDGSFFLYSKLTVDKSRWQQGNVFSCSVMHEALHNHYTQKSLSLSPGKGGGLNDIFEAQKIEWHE
T2 sequence (P07766 23-207 limits assumed): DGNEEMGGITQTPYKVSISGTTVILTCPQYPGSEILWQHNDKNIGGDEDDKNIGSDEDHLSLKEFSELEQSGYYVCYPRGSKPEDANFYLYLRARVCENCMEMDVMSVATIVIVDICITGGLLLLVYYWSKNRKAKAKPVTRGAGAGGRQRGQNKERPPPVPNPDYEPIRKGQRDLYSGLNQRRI

Binder	% Retained 55° C. [1] [%]	% Retained 60° C. [1] [%]	% Retained 65° C. [1] [%]	% Binding retained on T-cells, 55° C. [2] [fraction]	% Binding retained on T-cells, 60° C. [2] [fraction]	% Binding retained on T-cells, 65° C. [2] [fraction]	% Binding retained on T-cells, RT [2] [fraction]
B1	108	104	36	1.12	1.2	0.543	1
B2	100	84	11	1.07	1	0.295	1
B3	103	103	38	0.866	0.784	0.387	1
B4	102	103	23	1.07	0.986	0.061	1
B5	105	98	22	1.03	1.1	0.279	1
B6	111	103	44	1.3	1	0.609	1
B7	104	97	16	1.06	1.11	0.447	1
B8	96	83	2	0.993	0.935	0.0842	1
B9	100	88	4	0.991	0.906	0.0805	1
B10	103	102	14	0.786	1.04	0.198	1
B11	111	105	28	1.05	0.997	0.296	1
B12	112	110	20	1.05	0.808	0.174	1
